Experimental data published in paper PMC7615710 (2023).

Legend:
[1] = target: T1, ASPP1 C-terminal domain (CTD), tag cleaved (UniProt Q96KQ4 887-1090); experiment: ITC
T1 chain: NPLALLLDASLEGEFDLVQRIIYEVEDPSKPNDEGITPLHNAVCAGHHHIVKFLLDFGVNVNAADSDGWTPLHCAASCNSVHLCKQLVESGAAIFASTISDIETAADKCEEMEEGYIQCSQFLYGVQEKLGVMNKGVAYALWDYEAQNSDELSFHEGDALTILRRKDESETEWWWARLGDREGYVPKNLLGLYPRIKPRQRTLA

[2] = target: T2, ASPP2 C-terminal domain (CTD), tag cleaved (UniProt Q13625 925-1128); experiment: ITC
T2 chain: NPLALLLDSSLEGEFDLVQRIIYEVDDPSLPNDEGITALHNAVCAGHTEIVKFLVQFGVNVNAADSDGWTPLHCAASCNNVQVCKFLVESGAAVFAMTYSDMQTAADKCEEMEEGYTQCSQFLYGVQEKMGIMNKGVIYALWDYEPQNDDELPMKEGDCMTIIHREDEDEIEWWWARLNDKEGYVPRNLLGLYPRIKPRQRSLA

## LPPPKKAPTPPPRRRRTVGL [NS5A PRR peptide of HCV strain JFH-1 (20 aa)]
[1]
  Kd: 3780 nM
[2]
  Kd: 42.4 nM
